From IntAct's records for PubMed 21673656

B1: Flagellar motor switch protein FliG (Escherichia coli (strain K12)), P0ABZ1 (parent)
chain: MSNLTGTDKSVILLMTIGEDRAAEVFKHLSQREVQTLSAAMANVTQISNKQLTDVLAEFEQEAEQFAALNINANDYLRSVLVKALGEERAASLLEDILETRDTASGIETLNFMEPQSAADLIRDEHPQIIATILVHLKRAQAADILALFDERLRHDVMLRIATFGGVQPAALAELTEVLNGLLDGQNLKRSKMGGVRTAAEIINLMKTQQEEAVITAVREFDGELAQKIIDEMFLFENLVDVDDRSIQRLLQEVDSESLLIALKGAEQPLREKFLRNMSQRAADILRDDLANRGPVRLSQVENEQKAILLIVRRLAETGEMVIGSGEDTYV
partner: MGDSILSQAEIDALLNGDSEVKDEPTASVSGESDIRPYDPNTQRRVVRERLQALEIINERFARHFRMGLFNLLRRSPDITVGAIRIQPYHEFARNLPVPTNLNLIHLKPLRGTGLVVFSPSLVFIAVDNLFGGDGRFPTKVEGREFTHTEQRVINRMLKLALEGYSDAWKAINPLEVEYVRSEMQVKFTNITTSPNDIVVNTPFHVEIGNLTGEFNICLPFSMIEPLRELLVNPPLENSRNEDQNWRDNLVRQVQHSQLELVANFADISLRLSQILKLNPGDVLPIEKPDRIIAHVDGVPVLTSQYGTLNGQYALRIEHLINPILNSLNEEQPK
B2: Flagellar motor switch protein FliM (Escherichia coli (strain K12)), P06974 (parent)
chain: B1 partner
partner: B1 chain

Variants of: B1
Conditions: with flim_ecoli fliM

Row | Variant | effect of a mutation on the interaction
1 | L225C | increasing interaction

Variants of: B1
Conditions: with flim_ecoli fliM
Remark: another data set of the same source

Row | Variant | effect of a mutation on the interaction
2 | L225W | disrupting interaction

Variants of: B1
Conditions: with flim_ecoli fliM
Remark: another data set of the same source

Row | Variant | effect of a mutation on the interaction
3 | I202W | disrupting interaction

Variants of: B1
Conditions: with flim_ecoli fliM, P06974

Row | Variant | effect of a mutation on the interaction
4 | I129C | increasing interaction

Variants of: B1
Conditions: with flim_ecoli fliM, P06974
Remark: another data set of the same source

Row | Variant | effect of a mutation on the interaction
5 | M206C | increasing interaction

Variants of: B2
Conditions: with flig_ecoli fliG, P0ABZ1

Row | Variant | effect of a mutation on the interaction
6 | F131C | increasing interaction

Variants of: B2
Conditions: with flig_ecoli fliG

Row | Variant | effect of a mutation on the interaction
7 | F131D | disrupting interaction

Variants of: B2
Conditions: with flig_ecoli fliG
Remark: another data set of the same source

Row | Variant | effect of a mutation on the interaction
8 | R156D | disrupting interaction

Variants of: B2
Conditions: with flig_ecoli fliG
Remark: another data set of the same source

Row | Variant | effect of a mutation on the interaction
9 | V153D | decreasing interaction

Variants of: B2
Conditions: with flig_ecoli fliG
Remark: another data set of the same source

Row | Variant | effect of a mutation on the interaction
10 | V153C | increasing interaction

Variants of: B2
Conditions: with flig_ecoli fliG
Remark: another data set of the same source

Row | Variant | effect of a mutation on the interaction
11 | T149D | decreasing interaction

Variants of: B2
Conditions: with flig_ecoli fliG, P0ABZ1
Remark: another data set of the same source

Row | Variant | effect of a mutation on the interaction
12 | T149C | increasing interaction

Variants of: B2
Conditions: with flig_ecoli fliG
Remark: another data set of the same source

Row | Variant | effect of a mutation on the interaction
13 | G133W | disrupting interaction

Variants of: B2
Conditions: with flig_ecoli fliG
Remark: another data set of the same source

Row | Variant | effect of a mutation on the interaction
14 | L160E | decreasing interaction
